Where two headings read alike, the source gives them in different places. Values belong to the molecule of their own block, whether it stands above or below them.
Key:
[1] = target: Bacillus stearothermophilus DnaB (replicative helicase) (Bacillus stearothermophilus NCA 1503) (UniProt Q9X4C9); assay: SEC
SEC [2] = target: the molecule itself; assay: SEC
[3] = target: T1, Bacillus stearothermophilus DnaB (replicative helicase) (Bacillus stearothermophilus NCA 1503, UniProt Q9X4C9 1-454); assay: SEC + AUC
T1 sequence (looked up): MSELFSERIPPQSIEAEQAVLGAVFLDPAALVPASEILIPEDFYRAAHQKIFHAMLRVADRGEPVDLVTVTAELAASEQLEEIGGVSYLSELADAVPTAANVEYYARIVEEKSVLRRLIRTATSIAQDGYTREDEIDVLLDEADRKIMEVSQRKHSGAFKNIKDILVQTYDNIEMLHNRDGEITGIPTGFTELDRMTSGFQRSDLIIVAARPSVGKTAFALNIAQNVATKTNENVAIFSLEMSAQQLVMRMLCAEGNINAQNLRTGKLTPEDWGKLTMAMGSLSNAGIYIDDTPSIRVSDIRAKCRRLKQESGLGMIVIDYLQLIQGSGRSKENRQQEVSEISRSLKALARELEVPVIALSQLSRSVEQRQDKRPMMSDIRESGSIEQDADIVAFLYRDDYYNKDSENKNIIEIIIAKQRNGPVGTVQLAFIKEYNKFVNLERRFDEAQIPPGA

SEC [4] = target: the molecule itself; assay: SEC; remark: listed apart in the source
SEC [5] = target: the molecule itself; assay: SEC; remark: listed apart in the source

B1: P17, N-terminal 17 kDa fragment of B. stearothermophilus DnaB (domain or fragment, Bacillus stearothermophilus NCA 1503, UniProt Q9X4C9 1-154, looked up)
chain: MSELFSERIPPQSIEAEQAVLGAVFLDPAALVPASEILIPEDFYRAAHQKIFHAMLRVADRGEPVDLVTVTAELAASEQLEEIGGVSYLSELADAVPTAANVEYYARIVEEKSVLRRLIRTATSIAQDGYTREDEIDVLLDEADRKIMEVSQRK
stoichiometry N (SEC [2]): 2

B3: P33, C-terminal 33 kDa fragment of B. stearothermophilus DnaB (domain or fragment, Bacillus stearothermophilus NCA 1503, UniProt Q9X4C9 155-454, looked up)
chain: HSGAFKNIKDILVQTYDNIEMLHNRDGEITGIPTGFTELDRMTSGFQRSDLIIVAARPSVGKTAFALNIAQNVATKTNENVAIFSLEMSAQQLVMRMLCAEGNINAQNLRTGKLTPEDWGKLTMAMGSLSNAGIYIDDTPSIRVSDIRAKCRRLKQESGLGMIVIDYLQLIQGSGRSKENRQQEVSEISRSLKALARELEVPVIALSQLSRSVEQRQDKRPMMSDIRESGSIEQDADIVAFLYRDDYYNKDSENKNIIEIIIAKQRNGPVGTVQLAFIKEYNKFVNLERRFDEAQIPPGA
stoichiometry N (SEC [4]): 6
stoichiometry N (SEC [5]): 2

The remaining lines, values ahead:

stoichiometry N (P16 molecules per DnaB hexamer) [1]: 3
Molecule: P16, C-terminal 16 kDa fragment of B. stearothermophilus DnaG (from UniProt Q9X4D0 451-597) (domain or fragment)

stoichiometry N [3]: 3 DnaG molecules per DnaB hexamer
B2: Bacillus stearothermophilus DnaG (primase) (enzyme, Bacillus stearothermophilus NCA 1503, UniProt Q9X4D0 1-597, looked up)
chain: MGHRIPEETIEAIRRGVDIVDVIGEYVQLKRQGRNYFGLCPFHGEKTPSFSVSPEKQIFHCFGCGAGGNAFTFLMDIEGIPFVEAAKRLAAKAGVDLSVYELDVRGRDDGQTDEAKAMTEAHALLKRFYHHLLVHTKEGQAALDYLQARGWTKETIDRFEIGYAPDAPDAAAKLLESHSFSLPVMEKAGLLTKKEDGRYVGRFRNRIMFPIHDHRGETVGFSGRLLGEGHPKYVNSPETPVFRKGAILYHFHAARVPIRKRQEALLVEGFADVISAAQAGIDYAIATMGTSLTEEQARILRPCDTITICYDGDRAGIEAAWAAAEQLSALGCRVKVASLPNGLDPDEYIRVYGGERFAGEAGCRRPLVAFKMAYLRRGKNLQHEGERLRYIDEALREIGKLSSPVEQDYYLRQLAEEFSLSLSALHEQLSRSQRERTKPREAPDGETARPMLAKKLLPAFQNAERLLLAHMMRSRDVALVVQERIGGRFNIEEHRALAAYIYAFYEEGHEADPGALISRIPGELQPLASDVSLLLIADDVSEQELEDYIRHVLNRPKWLMLKVKEQEKTEAERRKDFLTAARIAKEMIEMKKMLSSS

Source: paper PMC3188359 (Biochemistry, 2000)
